Data from patent US20240131068A1 (KITE PHARMA, published 2024).

T1: native CD19 expressed on NALM6 tumor cells (UniProt P15391 20-556)
T1 construct: whole, on cells; also called CD19^+ NALM6; NALM6-wt
T1 sequence (looked up): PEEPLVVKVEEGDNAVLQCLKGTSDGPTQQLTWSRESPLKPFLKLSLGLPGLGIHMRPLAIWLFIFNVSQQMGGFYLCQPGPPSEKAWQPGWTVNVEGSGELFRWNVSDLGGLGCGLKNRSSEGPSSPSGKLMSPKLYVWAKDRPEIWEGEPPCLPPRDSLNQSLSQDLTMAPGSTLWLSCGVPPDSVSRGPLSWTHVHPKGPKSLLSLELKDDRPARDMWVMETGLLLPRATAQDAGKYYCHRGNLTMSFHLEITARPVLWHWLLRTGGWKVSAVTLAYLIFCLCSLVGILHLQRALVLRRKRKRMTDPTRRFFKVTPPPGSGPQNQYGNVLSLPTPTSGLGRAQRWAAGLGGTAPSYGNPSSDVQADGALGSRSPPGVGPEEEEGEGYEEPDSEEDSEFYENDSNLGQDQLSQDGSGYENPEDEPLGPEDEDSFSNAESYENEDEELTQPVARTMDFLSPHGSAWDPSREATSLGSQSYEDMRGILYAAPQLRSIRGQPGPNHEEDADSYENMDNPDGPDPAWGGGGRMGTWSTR

B1: CD19 E7 scFv (P4) (scFv)
scFv: DIQMTQSPSSLSASVGDRVTITCRASQDITRYLNWYQQKPGKAPKLLIYAASSLQSGVPSRFSGSGSGTDFTLTISSLQPEDFATYYCQQSYSYPPTFGQGTKVEIKGGGGSGGGGSGGGGSQVQLVESGGGVVQPGRSLRLSCAASGFTFRDYGMHWVRQAPGKGLEWVAVISYEGSNEYYADSVKGRFTISRDNSKNTLYLQMNSLRAEDTAVYYCARDRGFAGWYDYAFDPWGQGTLVTVSS
notes: scFv clone from the display library, screened as a library clone; also called 45; clone 45
B2: CD19 23 scFv (P12) (scFv)
scFv: DIQMTQSPSSLSASVGDRVTITCRASQSIYSYLNWYQQKRGKAPKLLIYDASSLQSGVPSRFSGSGSGTDFTLTISSLQPEDFATYYCQQSYTAPPTFGQGTKVEIKGGGGSGGGGSGGGGSEVQLLESGGGLVQPGGSLRLSCAASGFTFSNYAMSWVRQAPGKGLEWVSAISESGHGTYYADSVKGRFTISRDNSKNTLYLQMNSLRAEDTAVYYCARLDWAGFDVWGQGTLVTVSS
notes: scFv clone from the display library, screened as a library clone; also called 53; clone 53
B3: CD19 15 scFv (P9) (scFv)
scFv: DIQMTQSPSSLSASVGDRVTITCRASQPIRPYLNWYQQKPGKAPKLLIYDASSLQSGVPSRFSGSGSGTDFTLTISSLQPEDFATYYCQQSYSAPYTFGQGTKVEIKGGGGSGGGGSGGGGSEVQLLESGGGLVQPGGSLRLSCAASGFTFSSYAMSWVRQAPGKGLEWVSVISGGGANTYYADSVKGRFTISRDNSKNTLYLQMNSLRAEDTAVYYCARDWRYFDHWGQGTLVTVSS
notes: scFv clone from the display library, screened as a library clone; also called 50; clone 50
B4: CD19 18 scFv (P11) (scFv)
scFv: QSVLTQPPSVSGAPGQRVTISCTGSSSNIGAGYDVHWYQQLPGTAPKLLIYGTKNRPSGVPDRFSGSKSGTSASLAITGLQAEDEADYYCQSYDVRLKGWVFGGGTKLTVLGGGGSGGGGSGGGGSQLQLQESGPGLVKPSETLSLTCTVSGGSITSSSYYWGWIRQPPGKGLEWIGSIYYTGTTYYNPSLKSRVTISVDTSKNQFSLKLSSVTAADTAVYYCARYVGLSGGFDYWGQGTLVTVSS
notes: scFv clone from the display library, screened as a library clone; also called 52; clone 52
B5: CD19 16 scFv (P10) (scFv)
scFv: QSVLTQPPSVSGAPGQRVTISCTGSSSNIGAGYDVHWYQQLPGTAPKLLIYGNNNRPSGVPDRFSGSKSGTSASLAITGLQAEDEADYYCQSYDVSLGVWVFGGGTKLTVLGGGGSGGGGSGGGGSQLQLQESGPGLVKPSETLSLTCTVSGGSISSPSYYWGWIRQPPGKGLEWIGSIYYTGATYYNPSLKSRVTISVDTSKNQFSLKLSSVTAADTAVYYCARYGPAGVGFDYWGQGTLVTVSS
notes: scFv clone from the display library, screened as a library clone; also called 51; clone 51
B6: CD19 10 scFv (P6) (scFv)
scFv: DIQMTQSPSSLSASVGDRVTITCRASQTISRYLNWYQQKPGKAPKLLIYAASSLQSGVPSRFSGSGSGTDFTLTISSLQPEDFATYYCQQSYRPPLTFGQGTKVEIKGGGGSGGGGSGGGGSEVQLLESGGGLVQPGGSLRLSCAASGFTFSSYAMSWVRQAPGKGLEWVSTISAGGHGTYYADSVKGRFTISRDNSKNTLYLQMNSLRAEDTAVYYCARGAGYFDYWGQGTLVTVSS
notes: scFv clone from the display library, screened as a library clone; also called 47; clone 47
B7: CD19 14 scFv (P8) (scFv)
scFv: DIQMTQSPSSLSASVGDRVTITCRASQSISNYLNWYQQKPGKAPKLLIYAASSLQSGVPSRFSGSGSGTDFTLTISSLQPEDFATYYCQQAYSAPITFGQGTKVEIKGGGGSGGGGSGGGGSEVQLLESGGGLVQPGGSLRLSCAASGFTFGDYAMSWVRQAPGKGLEWVSAISRGGHGTYYADSVKGRFTISRDNSKNTLYLQMNSLRAEDTAVYYCARLVGYGLDYWGQGTLVTVSS
notes: scFv clone from the display library, screened as a library clone; also called 49; clone 49
B8: CD19 11 scFv (P7) (scFv)
scFv: DIQMTQSPSSLSASVGDRVTITCRASQSISSYLNWYQQKPGKAPKLLIYAASSLQSGVPSRFSGSGSGTDFTLTISSLQPEDFATYYCQQTGAVPYTFGQGTKVEIKGGGGSGGGGSGGGGSEVQLLESGGGLVQPGGSLRLSCAASGFTFRDYAMSWVRQAPGKGLEWVSAISESGIDTYYADSVKGRFTISRDNSKNTLYLQMNSLRAEDTAVYYCARVAGYDSDSSTYYDYMDVWGQGTLVTVSS
notes: scFv clone from the display library, screened as a library clone; also called 48; clone 48
B9: CD19 7 scFv (P5) (scFv)
scFv: DIQMTQSPSSLSASVGDRVTITCRASQSISKYLNWYQQKPGKAPKLLIYDASSLQSGVPSRFSGSGSGTDFTLTISSLQPEDFATYYCQQSYTIPLTFGQGTKVEIKGGGGSGGGGSGGGGSQVQLVQSGAEVKKPGSSVKVSCKASGGTFSSYAFSWVRQAPGQGLEWMGGIVPLFGAVEYAQKFQGRVTITADESTSTAYMELSSLRSEDTAVYYCAREKGFYRYFDHWGQGTLVTVSS
notes: scFv clone from the display library, screened as a library clone; also called 46; clone 46

Target: SIGLEC 7 (UniProt Q9Y286 19-467, limits assumed)
Assay: counter-selection of scFv clones against baculovirus and SIGLEC 7, 8 and 9
From the text: (§1) These up to 30 scFv clones were further screened based on their ability to bind baculovirus or SIGLEC. Clones that bound biotinylated baculovirus or SIGLEC 7, 8 and 9 were removed from consideration.

Sequence of SIGLEC 7 (Q9Y286 19-467 limits assumed): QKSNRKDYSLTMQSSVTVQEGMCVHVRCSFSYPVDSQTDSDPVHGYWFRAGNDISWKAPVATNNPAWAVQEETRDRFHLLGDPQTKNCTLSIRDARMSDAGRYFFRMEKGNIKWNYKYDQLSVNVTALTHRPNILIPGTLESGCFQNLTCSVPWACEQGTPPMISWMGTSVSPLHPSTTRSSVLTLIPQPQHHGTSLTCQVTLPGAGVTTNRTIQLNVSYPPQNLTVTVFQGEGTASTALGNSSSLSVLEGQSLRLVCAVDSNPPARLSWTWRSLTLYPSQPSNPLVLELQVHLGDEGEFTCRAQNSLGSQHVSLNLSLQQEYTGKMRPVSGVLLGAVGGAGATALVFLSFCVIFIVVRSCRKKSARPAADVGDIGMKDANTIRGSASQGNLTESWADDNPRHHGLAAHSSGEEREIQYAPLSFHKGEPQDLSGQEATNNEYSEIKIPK

| binding result | Binder |
| --- | --- |
| no binding | B1 |

Target: SIGLEC 8 (UniProt Q9NYZ4 17-499, limits assumed)
Assay: as above
From the text: as §1

Sequence of SIGLEC 8 (Q9NYZ4 17-499 limits assumed): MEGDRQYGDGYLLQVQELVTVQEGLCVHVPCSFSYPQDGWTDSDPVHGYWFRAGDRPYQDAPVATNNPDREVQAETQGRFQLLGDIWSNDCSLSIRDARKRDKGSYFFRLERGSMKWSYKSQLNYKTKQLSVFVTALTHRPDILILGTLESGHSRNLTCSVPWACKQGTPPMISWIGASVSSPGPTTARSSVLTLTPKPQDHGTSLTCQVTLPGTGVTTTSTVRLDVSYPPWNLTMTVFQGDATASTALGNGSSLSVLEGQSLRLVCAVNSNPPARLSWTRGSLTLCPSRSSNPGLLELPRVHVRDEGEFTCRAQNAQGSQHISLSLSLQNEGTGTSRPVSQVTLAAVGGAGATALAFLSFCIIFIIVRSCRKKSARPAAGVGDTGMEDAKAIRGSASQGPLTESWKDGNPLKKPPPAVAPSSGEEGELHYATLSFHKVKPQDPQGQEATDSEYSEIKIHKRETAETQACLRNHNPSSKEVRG

| binding result | Binder |
| --- | --- |
| no binding | B1 |

Target: SIGLEC 9 (UniProt Q9Y336 18-463, limits assumed)
Assay: as above
From the text: as §1

Sequence of SIGLEC 9 (Q9Y336 18-463 limits assumed): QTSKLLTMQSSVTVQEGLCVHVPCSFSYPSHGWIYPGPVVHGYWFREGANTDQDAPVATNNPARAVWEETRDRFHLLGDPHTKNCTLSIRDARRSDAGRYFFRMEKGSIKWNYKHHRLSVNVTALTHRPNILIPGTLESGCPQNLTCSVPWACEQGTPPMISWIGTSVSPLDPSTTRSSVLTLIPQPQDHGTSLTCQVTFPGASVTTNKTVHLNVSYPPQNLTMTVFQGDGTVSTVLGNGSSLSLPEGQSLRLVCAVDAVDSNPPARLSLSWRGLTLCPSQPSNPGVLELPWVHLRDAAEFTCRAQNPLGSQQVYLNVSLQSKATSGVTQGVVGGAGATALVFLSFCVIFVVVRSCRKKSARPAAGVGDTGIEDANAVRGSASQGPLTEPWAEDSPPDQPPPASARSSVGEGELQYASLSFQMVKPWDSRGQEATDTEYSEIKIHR

| binding result | Binder |
| --- | --- |
| no binding | B1 |

Target: T1, native CD19 expressed on NALM6 tumor …
Assay: screen of scFv clones on CD19^+ NALM6 cells, Nalm6-CD19KO cells as negative control
From the text: To ensure that the up to (30) clones could recognize native CD19 expressed on tumor cells, the clones (scFv) were also screened against NALM6 tumor cell line positive (+) CD19 expression (NALM6 cell line+CD19). CD19 knockout Nalm6 cell line (NALM6 cell line⁻ CD1; or CD19KO Nalm6 cell line) were used as a negative control for the selection. CD19KO Nalm6 cell lines used for the screen were engineered CRISPR knocked-out (KO) Nalm6-CD19KO cells. Clones that bound CD19⁺ NALM6 tumor cells, but not CD19-NALM6 tumor cells (CD19K0) were selected (Step 4).

| binding result | Binder |
| --- | --- |
| binds | B1 |
| binds | B2 |
| binds | B3 |
| binds | B4 |
| binds | B5 |
| binds | B6 |
| binds | B7 |
| binds | B8 |
| binds | B9 |
